From paper PMC4446437 (Nucleic Acids Research, 2015)

Target: T1, His-tagged Set7 (human, UniProt Q8WTS6 1-366)
T1 sequence (looked up): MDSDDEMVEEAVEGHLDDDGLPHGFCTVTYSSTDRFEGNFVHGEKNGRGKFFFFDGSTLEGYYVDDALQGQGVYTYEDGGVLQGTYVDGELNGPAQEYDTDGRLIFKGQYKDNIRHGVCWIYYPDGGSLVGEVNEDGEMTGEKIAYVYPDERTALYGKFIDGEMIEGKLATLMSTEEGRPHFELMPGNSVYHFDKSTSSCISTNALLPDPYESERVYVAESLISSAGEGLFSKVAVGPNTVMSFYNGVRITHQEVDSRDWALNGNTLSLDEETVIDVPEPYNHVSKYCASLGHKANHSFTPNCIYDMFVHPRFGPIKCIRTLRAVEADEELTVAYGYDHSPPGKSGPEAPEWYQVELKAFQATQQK
Test: pull-down

B1: GST-HIF-1α-(amino acids 576–785) (domain or fragment, human, UniProt Q16665 576-785, looked up)
chain: SFDQLSPLESSSASPESASPQSTVTVFQQTQIQEPTANATTTTATTDELKTVTKDRMEDIKILIASPSPTHIHKETTSATSSPYRDTQSRTASPNRAGKGVIEQTEKSHPRSPNVLSVALSQRTTVPEEELNPKILALQNAQRKRKMEHDGSLFQAVGIGTLLQQPDDHAATTSLSWKRVKGCKSSEQNGMEQKTIILIPSDLACRLLGQ
binding result: binds
